Source: publication doi:10.1101/2021.04.22.440356 (bioRxiv, 2021)

Target: T1, yeast ubiquitin hydrolase 1 (YUH1) (S. cerevisiae, UniProt P35127 1-236)
T1 sequence (looked up): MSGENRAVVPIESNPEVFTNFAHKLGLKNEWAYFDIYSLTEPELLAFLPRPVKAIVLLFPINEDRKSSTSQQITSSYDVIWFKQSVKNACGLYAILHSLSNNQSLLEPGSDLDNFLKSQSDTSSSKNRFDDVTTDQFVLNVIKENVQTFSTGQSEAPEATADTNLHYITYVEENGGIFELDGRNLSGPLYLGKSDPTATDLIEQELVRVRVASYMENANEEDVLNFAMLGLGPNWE
Assay: NMR 1H-15N TROSY spectra of the complex

- binding result: binds
B1: yeast ubiquitin (natural protein)
chain: not shown
modifications: 2H,15N-labelled
